# Results as given in patent US20230330249A1, “ANTIBODY-CONJUGATED CHEMICAL INDUCERS OF DEGRADATION OF BRM AND METHODS THEREOF” (Genentech, Inc., priority 2020, published 2023).
# B1: Thio Hu Anti-TfR1.NG2LH.FcRn null high DAR [HC:L174C HC:Y373C LC:K149C] MC-sqCit BRM CIDE Ab-L1-CIDE-BRM1-13 (conjugate)
# heavy: EVQLVQSGAEVKKPGASVKVSCKASGYTFTSYWMHWVRQAPGQRLEWIGEINPTNGRTNYIEKFKSRATLTVDKSASTAYMELSSLRSEDTAVYYCARGTRAYHYWGQGTMVTVSSASTKGPSVFPLAPSSKSTSGGTAALGCLVKDYFPEPVTVSWNSGALTSGVHTFPAVCQSSGLYSLSSVVTVPSSSLGTQTYICNVNHKPSNTKVDKKVEPKSCDKTHTCPPCPAPPVAGPSVFLFPPKPKDTLMISRTPEVTCVVVDVSHEDPEVKFNWYVDGVEVHNAKTKPREEQYGSTYRVVSVLTVLHQDWLNGKEYKCKVSNKALPAPIEKTISKAKGQPREPQVYTLPPSREEMTKNQVSLTCLVKGFCPSDIAVEWESNGQPENNYKTTPPVLDSDGSFFLYSKLTVDKSRWQQGNVFSCSVMHEALHNHYTQKSLSLSPGK
# light: DIQMTQSPSSLSASVGDRVTITCRASDNLYSNLAWYQQKPGKSPKLLVYDATNLADGVPSRFSGSGSGTDYTLTISSLQPEDFATYYCQHFWGTPLTFGQGTKVEIKRTVAAPSVFIFPPSDEQLKSGTASVVCLLNNFYPREAKVQWCVDNALQSGNSQESVTEQDSKDSTYSLSSTLTLSKADYEKHKVYACEVTHQGLSSPVTKSFNRGEC
# B2: Thio Hu Anti-TfR2.NG2LH high DAR [HC:L174C HC:Y373C LC:K149C] diMe Me disulfide BRM degrader phos Ab-L1-CIDE-BRM1-9 (conjugate)
# heavy: EVQLVQSGAEVKKPGASVKVSCKASGYTFTSYWMHWVRQAPGQRLEWIGEINPTNGRTNYIEKFKSRATLTVDKSASTAYMELSSLRSEDTAVYYCARGTRAYHYWGQGTMVTVSSASTKGPSVFPLAPSSKSTSGGTAALGCLVKDYFPEPVTVSWNSGALTSGVHTFPAVCQSSGLYSLSSVVTVPSSSLGTQTYICNVNHKPSNTKVDKKVEPKSCDKTHTCPPCPAPPVAGPSVFLFPPKPKDTLMISRTPEVTCVVVDVSHEDPEVKFNWYVDGVEVHNAKTKPREEQYGSTYRVVSVLTVLHQDWLNGKEYKCKVSNKALPAPIEKTISKAKGQPREPQVYTLPPSREEMTKNQVSLTCLVKGFCPSDIAVEWESNGQPENNYKTTPPVLDSDGSFFLYSKLTVDKSRWQQGNVFSCSVMHEALHNHYTQKSLSLSPGK
# light: DIQMTQSPSSLSASVGDRVTITCRASDNLYSNLAWYQQKPGKSPKLLVYDATNLADGVPSRFSGSGSGTDYTLTISSLQPEDFATYYCQHFAGTPLTFGQGTKVEIKRTVAAPSVFIFPPSDEQLKSGTASVVCLLNNFYPREAKVQWCVDNALQSGNSQESVTEQDSKDSTYSLSSTLTLSKADYEKHKVYACEVTHQGLSSPVTKSFNRGEC
# What was measured:
# [1] = Lysosomal release assay; format: in vitro ADME, human; settings: pH 5.5, 24 h; for Release in lysosomal extract: 10 μM linker-drug, human liver lysosomes 0.17 mg/mL, cysteine 5 mM, 37° C.
# Excerpt: Lysosomal release assays were run to measure the release of the degrader from the L1 moeity in an environment that mimics intracellular milieu. For the degrader to be active at binding BRM and ferrying it to the ubiquitin ligase, the L1 must first be released.
# The assay was run using an L1 bound to the BRM-binding compound, named “L1-BRM1-#” that corresponds to the respective CIDE. The test determine whether cleavage of the covalent attachment of the L1 to the BRM portion occurred. Linker-drugs ([…]) were incubated with human liver lysosomes (0.17 mg/mL) and cysteine (5 mM) in 100 mM citric acid buffer pH 5.5 for 24 h. The samples were analyzed by Q Exactive Orbitrap mass specrometers using LC mobile phase containing (A) 0.1% formic acid in water and (B) 0.1% formic acid in acetonitrile in a gradient.
# [2] = molecular target: T1, BRM (Homo sapiens, UniProt P51531); assay: Cell assay to determine DC50 and Dmax (nuclear BRM immunofluorescence), NCI-H1944 cells; format: cell-based; settings: 24 h drug treatment, nuclear BRM signal
# T1 construct: endogenous in cells; host or cells: HCC515
# Description: (§1) Cell based assays were run in […] cell lines to determine the DC50 and Dmax of Ab-L1-CIDE. BJAB, HCC515 and H1944 cells were plated in 384 well plates at 5000, 4000 and 2500 cells/well, respectively. The next day Ab-CIDEs were added. Following 24 h of drug treatment the cells were fixed with 4% formaldehyde for 15 minutes. The plates were washed three time with PBS. The cells were incubated with IF blocking solution (10% FCS, 1% BSA, […] in PBS). After 1.5 h a 2× solution of primary antibody diluted in IF blocking buffer: BRM (Cell signaling Cat #11966, 1:2000) was added. The plates were incubated over night at 4° C. The following morning cells were washed three time with PBS. Cells were then incubated with secondary antibodies (rabbit-Alexa 488 A21206 (1:2000)) for 1 h at room temperature in the dark. Hoechst H3570 at 1:5000 was added to the wells and the plates were incubated for an additional 30 minutes. Plates were wash 3×PBS and image on Opera Phenix™ High Content Screening System. Using nuclear staining as a mask, nuclear BRM mean signal intensity was quantified.
# (§2) The data evidence the successful antibody targeting strategies disclosed herein.
# [3] = molecular target: T1, BRM; assay: Cell assay to determine DC50 and Dmax (nuclear BRM immunofluorescence), HCC515 cells; format: cell-based; settings: 24 h drug treatment, nuclear BRM signal
# Description: as §1, §2
# T1 sequence (P51531 whole entry): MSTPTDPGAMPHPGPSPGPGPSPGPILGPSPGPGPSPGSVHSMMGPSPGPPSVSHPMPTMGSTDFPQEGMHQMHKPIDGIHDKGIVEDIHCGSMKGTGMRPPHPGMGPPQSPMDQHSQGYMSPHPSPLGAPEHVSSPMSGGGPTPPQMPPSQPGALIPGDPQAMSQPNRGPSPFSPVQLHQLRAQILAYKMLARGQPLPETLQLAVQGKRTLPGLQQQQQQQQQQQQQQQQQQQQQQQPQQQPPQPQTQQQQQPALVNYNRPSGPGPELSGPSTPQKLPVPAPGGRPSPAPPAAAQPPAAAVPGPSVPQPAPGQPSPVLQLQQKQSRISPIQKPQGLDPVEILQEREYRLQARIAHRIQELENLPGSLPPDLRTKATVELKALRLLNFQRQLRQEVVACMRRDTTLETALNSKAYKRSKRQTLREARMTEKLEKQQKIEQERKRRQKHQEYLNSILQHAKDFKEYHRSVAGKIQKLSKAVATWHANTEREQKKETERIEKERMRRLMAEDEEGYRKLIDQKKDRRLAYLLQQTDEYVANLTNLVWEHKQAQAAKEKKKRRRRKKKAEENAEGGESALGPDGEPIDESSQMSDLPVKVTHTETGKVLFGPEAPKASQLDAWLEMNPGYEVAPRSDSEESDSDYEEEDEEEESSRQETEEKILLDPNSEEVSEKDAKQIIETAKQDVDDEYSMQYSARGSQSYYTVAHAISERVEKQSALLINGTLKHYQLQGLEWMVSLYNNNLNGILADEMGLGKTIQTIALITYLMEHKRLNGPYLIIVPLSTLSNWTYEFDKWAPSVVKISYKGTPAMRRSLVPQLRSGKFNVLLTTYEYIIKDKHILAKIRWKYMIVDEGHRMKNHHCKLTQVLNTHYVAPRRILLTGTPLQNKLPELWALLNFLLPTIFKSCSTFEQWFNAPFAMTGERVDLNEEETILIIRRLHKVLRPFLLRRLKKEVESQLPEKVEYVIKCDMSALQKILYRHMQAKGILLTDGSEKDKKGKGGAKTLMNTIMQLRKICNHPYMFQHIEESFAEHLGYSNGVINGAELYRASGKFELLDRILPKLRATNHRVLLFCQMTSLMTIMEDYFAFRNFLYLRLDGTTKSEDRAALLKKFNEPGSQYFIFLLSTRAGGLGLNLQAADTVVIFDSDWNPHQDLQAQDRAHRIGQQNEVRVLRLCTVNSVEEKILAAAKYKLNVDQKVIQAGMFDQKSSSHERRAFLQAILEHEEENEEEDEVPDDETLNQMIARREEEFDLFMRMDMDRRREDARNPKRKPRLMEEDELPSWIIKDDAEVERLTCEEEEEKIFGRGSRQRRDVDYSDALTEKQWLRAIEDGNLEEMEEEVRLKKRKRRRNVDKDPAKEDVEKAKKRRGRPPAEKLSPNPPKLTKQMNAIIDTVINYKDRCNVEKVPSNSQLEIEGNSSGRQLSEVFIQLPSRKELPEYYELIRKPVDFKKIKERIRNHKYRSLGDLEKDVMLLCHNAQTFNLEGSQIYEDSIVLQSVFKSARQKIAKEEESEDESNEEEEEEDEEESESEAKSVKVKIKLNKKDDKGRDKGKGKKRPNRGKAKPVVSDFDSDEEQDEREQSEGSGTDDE
Molecule,Release in lysosomal extract [1],NCI-HI944 DC50 [2] [µg/mL],NCI-HI944 Dmax [2],other results
Cc1ncsc1-c1ccc([C@H](C)NC(=O)[C@@H]2C[C@@H](OC(=O)OC(C)C(C)(C)SS(C)(=O)=O)CN2C(=O)[C@@H](c2cc(OCCN3CCN(CCOc4cc(N5C6CCC5CN(c5cc(-c7ccccc7OCOP(=O)(O)O)nnc5N)C6)ccn4)[C@H](C)C3)no2)C(C)C)cc1 (stereo partly shown) [L1-BRM1-9],Yes (“Yes” indicates >50% free drug observed after 24 h incubation at 37 °C in lysosomal extract.),–,–,–
Cc1ncsc1-c1ccc([C@H](C)NC(=O)[C@@H]2C[C@@H](O)CN2C(=O)[C@@H](c2cc(OCCN3CCN(CCOc4cc(N5C6CCC5CN(c5cc(-c7ccccc7OCc7ccc(NC(=O)[C@H](CCCNC(N)=O)NC(=O)C8(C(=O)NCCCCCN9C(=O)C=CC9=O)CCC8)cc7)nnc5N)C6)ccn4)[C@H](C)C3)no2)C(C)C)cc1 [L1-BRM1-13],Yes (“Yes” indicates >50% free drug observed after 24 h incubation at 37 °C in lysosomal extract.),–,–,–
Cc1ncsc1-c1ccc([C@H](C)NC(=O)[C@@H]2C[C@@H](O)CN2C(=O)[C@@H](c2cc(OCCN3CCN(CCOc4cc(N5C6CCC5CN(c5cc(-c7ccccc7O)nnc5NC(=O)OCc5ccc(NC(=O)[C@H](CCCNC(N)=O)NC(=O)C7(C(=O)NCCCCCN8C(=O)C=CC8=O)CCC7)cc5)C6)ccn4)[C@H](C)C3)no2)C(C)C)cc1 [L1-BRM1-20],Yes (“Yes” indicates >50% free drug observed after 24 h incubation at 37 °C in lysosomal extract.),–,–,–
Cc1ncsc1-c1ccc([C@H](C)NC(=O)[C@@H]2C[C@@H](O)CN2C(=O)[C@@H](c2cc(OCCN3CCN(CCOc4cc(N5C6CCC5CN(c5cc(-c7ccccc7OS(=O)(=O)Oc7cc(C(=O)NCCOCCOCCOCCn8cc(COCCOCCOCCOCCNC(=O)CCN9C(=O)C=CC9=O)nn8)ccc7O[C@@H]7O[C@H](CO)[C@H](O)[C@H](O)[C@H]7O)nnc5N)C6)ccn4)[C@H](C)C3)no2)C(C)C)cc1 [L1-CIDE-BRM1-15],–,–,–,Release of the degrader in lysosomal extracts ([1]; human liver lysosomes): did not release the degrader
B1,–,0.07,77,–
B2,–,0.74,94,HCC515 DC50 [3]: 0.12 µg/mL; HCC515 Dmax [3]: 96
